Measured values from patent publication US20130058939.

Target: mouse NMDA receptor NR1 subunit, P35438

B1: rt-PA (alteplase), recombinant human t-PA (protein)
chain: SYQVICRDEKTQMIYQQHQSWLRPVLRSNRVEYCWCNSGRAQCHSVPVKSCSEPRCFNGGTCQQALYFSDFVCQCPEGFAGKCCEIDTRATCYEDQGISYRGTWSTAESGAECTNWNSSALAQKPYSGRRPDAIRLGLGNHNYCRNPDRDSKPWCYVFKAGKYSSEFCSTPACSEGNSDCYFGNGSAYRGTHSLTESGASCLPWNSMILIGKVYTAQNPSAQALGLGKHNYCRNPDGDAKPWCHVLKNRRLTWEYCDVPSCSTCGLRQYSQPQFRIKGGLFADIASHPWQAAIFAKHRRSPGERFLCGGILISSCWILSAAHCFQERFPPHHLTVILGRTYRVVPGEEEQKFEVEKYIVHKEFDDDTYDNDIALLQLKSDSSRCAQESSVVRTVCLPPADLQLPDWTECELSGYGKHEALSPFYSERLKEAHVRLYPSSRCTSQHLLNRTVTDNMLCAGDTRSGGPQANLHDACQGDSGGPLVCLNDGRMTLVGIISWGLGCGQKDVPGVYTKVTNYLDWIRDNMRP
- net integrated increase in [Ca2+]i evoked by NMDA after 15 min exposure to t-PA (20 µg/ml): the net integrated increase in [Ca^2+]i (area under the curve expressed in arbitrary units) was enhanced by 37%
